Conditions in all cases: both partners purified
One assay concerns the target GST-CagA-4CM^W (Helicobacter pylori strain NCTC11637). Put plainly: pull-down; quantitative GST pull-down: GST-CagA on beads in a range of concentrations, fixed low concentration of PAR1b (39–364)-FLAG, GST-binding buffer with 0.01% Triton-X, 20 min at 4 °C, unbound PAR1b in the supernatant quantified, binding to GST control subtracted; apparent KD.
A further assay addresses T1, CagA-2CM^W (Helicobacter pylori strain 26695, UniProt P55980 1-1186).
T1 construct: also called canonical Western ABC type CagA
T1 sequence (looked up): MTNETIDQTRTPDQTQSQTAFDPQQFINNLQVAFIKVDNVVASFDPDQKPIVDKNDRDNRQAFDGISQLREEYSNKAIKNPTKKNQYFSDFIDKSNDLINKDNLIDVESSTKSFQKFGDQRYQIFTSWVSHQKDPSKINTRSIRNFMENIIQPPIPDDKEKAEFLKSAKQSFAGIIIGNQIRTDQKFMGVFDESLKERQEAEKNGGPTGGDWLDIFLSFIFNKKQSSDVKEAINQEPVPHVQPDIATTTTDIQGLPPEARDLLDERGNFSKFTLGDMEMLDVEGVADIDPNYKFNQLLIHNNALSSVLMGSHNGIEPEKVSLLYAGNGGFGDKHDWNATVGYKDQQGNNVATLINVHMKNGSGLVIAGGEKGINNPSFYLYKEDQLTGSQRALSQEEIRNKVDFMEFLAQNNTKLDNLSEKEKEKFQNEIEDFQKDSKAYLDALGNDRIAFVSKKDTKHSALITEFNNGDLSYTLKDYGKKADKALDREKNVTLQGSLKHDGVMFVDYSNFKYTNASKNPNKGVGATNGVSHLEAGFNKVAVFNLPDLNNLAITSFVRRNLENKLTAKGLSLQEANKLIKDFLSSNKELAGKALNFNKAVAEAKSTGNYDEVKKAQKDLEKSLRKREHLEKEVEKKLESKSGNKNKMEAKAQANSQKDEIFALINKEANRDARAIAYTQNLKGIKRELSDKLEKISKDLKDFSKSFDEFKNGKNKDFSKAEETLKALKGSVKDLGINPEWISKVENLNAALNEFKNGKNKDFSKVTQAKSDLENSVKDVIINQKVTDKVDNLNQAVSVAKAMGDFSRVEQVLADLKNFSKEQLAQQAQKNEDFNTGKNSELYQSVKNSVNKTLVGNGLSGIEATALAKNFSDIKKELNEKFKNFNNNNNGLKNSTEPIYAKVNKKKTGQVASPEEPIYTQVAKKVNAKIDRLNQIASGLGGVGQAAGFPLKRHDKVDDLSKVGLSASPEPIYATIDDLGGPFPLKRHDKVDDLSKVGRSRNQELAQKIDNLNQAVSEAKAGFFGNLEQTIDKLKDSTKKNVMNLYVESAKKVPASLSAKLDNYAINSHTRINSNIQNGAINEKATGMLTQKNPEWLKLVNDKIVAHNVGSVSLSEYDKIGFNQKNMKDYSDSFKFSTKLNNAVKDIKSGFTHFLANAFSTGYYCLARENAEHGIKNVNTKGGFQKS
The assay is described as follows: SEC; Superdex 200 10/300 GL, HBS-P running buffer, 4 °C, 0.5 ml/min; CagA constructs alone or mixed with PAR1b (39–364) at a molar ratio of 1:1 or 1:2; fractions on SDS-PAGE, CBB bands quantified.

A further assay concerns the target GST-CagA-2CM^W (Helicobacter pylori strain 26695, UniProt P55980 1-1186). Put plainly: pull-down; quantitative GST pull-down: GST-CagA on beads in a range of concentrations, fixed low concentration of PAR1b (39–364)-FLAG, GST-binding buffer with 0.01% Triton-X, 20 min at 4 °C, unbound PAR1b in the supernatant quantified, binding to GST control subtracted; apparent KD.

Three molecules from PMC4957108, “Impact of structural polymorphism for the Helicobacter pylori CagA oncoprotein on binding to polarity-regulating kinase PAR1b” (Scientific Reports, 2016) can be followed below.

B1: PAR1b (39–364)-FLAG (domain or fragment)
chain: not shown
As to B1, the Kd in the assay with GST-CagA-4CM^W was found to be 2.43 nM.

B2: PAR1b (39–364) (domain or fragment)
chain: not shown
modifications: C-terminal 6xHis tag left out
Regarding B2, in the assay with CagA-2CM^W, the stoichiometry N (usually the number of molecules, sites or subunits per partner or assembly) turned out to be 2 PAR1b per CagA.

B3: PAR1b (39–364)-FLAG (domain or fragment)
chain: not shown
modifications: C-terminal FLAG-6xHis tag left out
As to B3, the Kd in the assay with GST-CagA-2CM^W was 26.6 nM.
